The record followed here is the supplement of paper PMC7877785.

The data set can be described thus: self-splicing fitness, log relative to wild type (ln ratio); higher = more splicing; Tetrahymena group I intron in knt gene, E. coli kanamycin selection, DiMSum; sequences stand for … in CUCUCU…GGAGGGAAAAGUUAUCAGGCAUGCACCUGGUAGCUAGUCUUUAAACCAAUAGAUUGCAUCGGUUUAAAAGGCAAGACCGUCAAAUUGCGGGAAAGGGGUCAACAGCCGUUCAGUACCAAGUCUCAGGGGAAACUUUGAGAUGGCCUUGCAAAGGGUAUGGUAAUAAGCUGACGGACAUGGUCCUAACCACGCAGCCAAGUCCUAAGUCAACAGAUCUUCUGUUGAUAUGGAUGCAGUUCACAGACUAAAUGUCGGUCGGGGAAGAUGUAUUCUUCUCAUAAGAUAUAGUCGGACCUCUCCUUAAUGGGAGCUAGCGGAUGAAGUGAUGCAACACUGGAGCCGCUGGGAACUAAUUUGUAUGCGAAAGUAUAUUGAUUAGUUUUGGAGUACUCGUGGUCG
The method in brief: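 Fitness was computed with DiMSum as the error-weighted combination of replicate fold changes, kanamycin versus none, each normalised to wild type. The library randomised all eight intron nucleotides of the P1ex region, with the intron placed in the knt kanamycin-resistance gene on pET-22b(+) in E. coli BL21(DE3). Six replicate transformations were grown overnight at 37°C or 30°C on LB agar with or without 25 μg/mL kanamycin, plus 100 μg/mL carbenicillin, 50 μM IPTG and 0.2% rhamnose. Pooled colonies were amplicon-sequenced on an Illumina HiSeq 2500.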

± gives the uncertainty stated by the source.

On to CCCCAGCAAUAUUACGGAGC, for which the “self-splicing fitness (ln)” value reads like this: (30 °C) -3.08 ± 0.15; (37 °C) -2.83 ± 0.23.

Turning to CUCAAGCAAUAUUACGUCCG, the “self-splicing fitness (ln)” value is -2.08 ± 0.12 (30 °C) and -1.38 ± 0.13 (37 °C).

Consider AUGUAGCAAUAUUACGUAAU, for which the “self-splicing fitness (ln)” value runs as follows: (30 °C) -1.21 ± 0.11; (37 °C) -0.524 ± 0.12.

In the case of AGUCAGCAAUAUUACGCUCC, the “self-splicing fitness (ln)” value is -0.39 ± 0.17 (30 °C) and -0.919 ± 0.16 (37 °C).

As for AAUCAGCAAUAUUACGUUCA, the “self-splicing fitness (ln)” value is -1.2 ± 0.091 (30 °C) and -0.527 ± 0.11 (37 °C).

For the sequence AGCUAGCAAUAUUACGAAGU, the “self-splicing fitness (ln)” value was -4.06 ± 0.32 (30 °C) and -1.73 ± 0.26 (37 °C).

In the case of AUACAGCAAUAUUACGAGUU, the “self-splicing fitness (ln)” value is -2.65 ± 0.14 (30 °C) and -0.493 ± 0.1 (37 °C).

In the case of AACAAGCAAUAUUACGUAAG, the “self-splicing fitness (ln)” value by setting is: (30 °C) -1.93 ± 0.058; (37 °C) -1.16 ± 0.077.

Consider GCCCAGCAAUAUUACGUAGA, for which the “self-splicing fitness (ln)” value (30 °C) is -0.69 ± 0.052 and the “self-splicing fitness (ln)” value (37 °C) worked out at 0.0571 ± 0.064.

As for GUGAAGCAAUAUUACGAAAA, the “self-splicing fitness (ln)” value (30 °C) is -1.44 ± 0.14 and the “self-splicing fitness (ln)” value (37 °C) was -0.831 ± 0.18.

CUUAAGCAAUAUUACGUACC: the “self-splicing fitness (ln)” value (30 °C) is -2.7 ± 0.35 and the “self-splicing fitness (ln)” value (37 °C) is -0.17 ± 0.47.

With CUCGAGCAAUAUUACGCGAC, the “self-splicing fitness (ln)” value (37 °C) was -0.0316 ± 0.34.

For GCUCAGCAAUAUUACGCGUG, the “self-splicing fitness (ln)” value is -1.99 ± 0.07 (30 °C) and -1.79 ± 0.089 (37 °C).

As to CAGUAGCAAUAUUACGUCAA, the “self-splicing fitness (ln)” value (30 °C) was -2.64 ± 0.14 and the “self-splicing fitness (ln)” value (37 °C) is -2.59 ± 0.26.

For the sequence GACCAGCAAUAUUACGACCU, the “self-splicing fitness (ln)” value is 0.00245 ± 0.074 (30 °C) and -0.389 ± 0.073 (37 °C).

As for ACAUAGCAAUAUUACGCGAA, the “self-splicing fitness (ln)” value by setting is: (30 °C) -3.3 ± 0.13; (37 °C) -1.03 ± 0.098.

Regarding UUGAAGCAAUAUUACGUUAU, the “self-splicing fitness (ln)” value is, setting by setting: (30 °C) -2.08 ± 0.099; (37 °C) -0.402 ± 0.1.

On to CGGCAGCAAUAUUACGGUCG, for which the “self-splicing fitness (ln)” value (30 °C) was -3.51 ± 0.27 and the “self-splicing fitness (ln)” value (37 °C) was -2.94 ± 0.33.

Consider AUGCAGCAAUAUUACGCGAA, for which the “self-splicing fitness (ln)” value by setting is: (30 °C) -1.76 ± 0.13; (37 °C) -1.03 ± 0.11.

In the case of GAGGAGCAAUAUUACGGCCC, the “self-splicing fitness (ln)” value (30 °C) is -0.89 ± 0.29 and the “self-splicing fitness (ln)” value (37 °C) was -0.616 ± 0.49.

For the sequence AUGAAGCAAUAUUACGUUGG, the “self-splicing fitness (ln)” value (30 °C) was -2.72 ± 0.16 and the “self-splicing fitness (ln)” value (37 °C) was -1.58 ± 0.2.

For UUGGAGCAAUAUUACGUGCG, the “self-splicing fitness (ln)” value is -1.73 ± 0.28 (30 °C) and -0.739 ± 0.21 (37 °C).

Turning to UUCCAGCAAUAUUACGGAGU, the “self-splicing fitness (ln)” value (30 °C) was -4.4 ± 0.42.

As to AUCCAGCAAUAUUACGGAUU, the “self-splicing fitness (ln)” value runs as follows: (30 °C) -3.25 ± 0.12; (37 °C) -2.83 ± 0.21.

Turning to CCUCAGCAAUAUUACGAAUU, the “self-splicing fitness (ln)” value (30 °C) was -2.53 ± 0.18 and the “self-splicing fitness (ln)” value (37 °C) is -2.13 ± 0.2.

As to GCUGAGCAAUAUUACGAACC, the “self-splicing fitness (ln)” value was -1.08 ± 0.14 (30 °C) and -0.236 ± 0.18 (37 °C).

With UUCAAGCAAUAUUACGGAUG, the “self-splicing fitness (ln)” value was -2.34 ± 0.14 (30 °C) and -1.7 ± 0.14 (37 °C).

CUUAAGCAAUAUUACGCAUA: where the note is “30 °C”, the “self-splicing fitness (ln)” value is -3.2 ± 0.32.

For CGAAAGCAAUAUUACGAUUC, the “self-splicing fitness (ln)” value (37 °C) was -2.13 ± 0.26.

In the case of UUGGAGCAAUAUUACGAUUU, the “self-splicing fitness (ln)” value is -3.2 ± 0.21 (30 °C) and -2.86 ± 0.29 (37 °C).

Regarding AGUUAGCAAUAUUACGGUGC, the “self-splicing fitness (ln)” value was -3.15 ± 0.17 (30 °C) and -2.44 ± 0.2 (37 °C).

Regarding CUAAAGCAAUAUUACGAUUC, the “self-splicing fitness (ln)” value was -3.33 ± 0.31 (30 °C) and -3.73 ± 0.46 (37 °C).

In the case of GCACAGCAAUAUUACGCGGU, the “self-splicing fitness (ln)” value by setting is: (30 °C) -4.01 ± 0.2; (37 °C) -1.87 ± 0.11.

Regarding GAAUAGCAAUAUUACGUACA, the “self-splicing fitness (ln)” value is, setting by setting: (30 °C) -1.7 ± 0.14; (37 °C) -0.774 ± 0.2.

With UAAAAGCAAUAUUACGGCAU, the “self-splicing fitness (ln)” value reads like this: (30 °C) -0.376 ± 0.091; (37 °C) -0.235 ± 0.12.

As for CAACAGCAAUAUUACGCAGC, the “self-splicing fitness (ln)” value (30 °C) is -4.4 ± 0.25 and the “self-splicing fitness (ln)” value (37 °C) was -2.75 ± 0.29.

As to AGUUAGCAAUAUUACGUAUG, the “self-splicing fitness (ln)” value (30 °C) is -1.57 ± 0.15 and the “self-splicing fitness (ln)” value (37 °C) is -2.67 ± 0.29.

Turning to UGGAAGCAAUAUUACGCCCC, the “self-splicing fitness (ln)” value by setting is: (30 °C) -1.69 ± 0.41; (37 °C) -1.36 ± 0.35.

For GGGCAGCAAUAUUACGGGGA, the “self-splicing fitness (ln)” value is, setting by setting: (30 °C) -2.97 ± 0.21; (37 °C) -1.56 ± 0.17.
